Measurements taken from US20230227576A1 (published 2023).

Biological target: carcinoembryonic antigen (CEA) (Homo sapiens (Human), UniProt P06731)
Assay: cell-based or functional assay

IL-2 secretion (ELISA): 4.6 ng/mL
B1: MFE23 CD28(IEV) truncated CoStAR (CAR)
chain: QVKLQQSGAELVRSGTSVKLSCTASGFNIKDSYMHWLRQGPEQGLEWIGWIDPENGDTEYAPKFQGKATFTTDTSSNTAYLQLSSLTSEDTAVYYCNEGTPTGPYYFDYWGQGTTVTVSSGGGGSGGGGSGGGGSENVLTQSPAIMSASPGEKVTITCSASSSVSYMHWFQQKPGTSPKLWIYSTSNLASGVPARFSGSGSGTSYSLTISRMEAEDAATYYCQQRSSYPLTFGAGTKLELKRIEVMYPPPYLDNEKSNGTIIHVKGKHLCPSPLFPGPSKPFWVLVVVGGVLACYSLLVTVAFIIFWVRSKRSRLLHSDYMNMTPRRPGPTRKHYQPYAPPRDFAAYRS
